Measured values published in publication PMC9413830.

Test system: Lys1 (position 1, -----K-----)
Experiment: potentiometry
Details: No added salt; only the amphiphile counterions and the added NaOH; none (ultrapure water); 4 mM amphiphile, self-assembled; the assembly morphology changes with pH during the titration

First: C12-K (lysine amphiphile with a C12 alkyl tail) (synthetic)
Second: C14-K (lysine amphiphile with a C14 alkyl tail) (synthetic)
The pKa of the first is higher: 8.69 for the first, 8.01 for the second.

“C16-K (lysine amphiphile with a C16 alkyl tail; L enantiomer titrated) (synthetic)” showed a pKa of 7.66.
